# Source: patent publication US20240139329A1 (CALIFORNIA INSTITUTE OF TECHNOLOGY, published 2024)
# Residue numbers refer to the chain shown, from its start.
# T1: human interleukin 3 (IL3), expressed on microarray cells (human, UniProt P08700 20-152)
# T1 construct: also called hIL3
# T1 sequence: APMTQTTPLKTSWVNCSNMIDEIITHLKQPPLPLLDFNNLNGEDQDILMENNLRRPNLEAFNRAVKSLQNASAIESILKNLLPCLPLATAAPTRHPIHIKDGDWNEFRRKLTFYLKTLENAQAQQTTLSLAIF
# T2: Mouse SCA1 (LY6A), on cells (mouse, UniProt P05533 27-112)
# T2 construct: whole, on cells; also called mouse LY6A
# T2 sequence: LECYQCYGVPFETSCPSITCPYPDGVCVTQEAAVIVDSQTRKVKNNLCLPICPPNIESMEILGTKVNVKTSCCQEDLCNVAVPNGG
# T3: mouse LRP6-E1E2 (N-half, AA 20-628) tagged with Fc (mouse IgG2a) (mouse, UniProt O88572 20-628)
# T3 construct: not shown: mouse IgG2a Fc
# T3 sequence: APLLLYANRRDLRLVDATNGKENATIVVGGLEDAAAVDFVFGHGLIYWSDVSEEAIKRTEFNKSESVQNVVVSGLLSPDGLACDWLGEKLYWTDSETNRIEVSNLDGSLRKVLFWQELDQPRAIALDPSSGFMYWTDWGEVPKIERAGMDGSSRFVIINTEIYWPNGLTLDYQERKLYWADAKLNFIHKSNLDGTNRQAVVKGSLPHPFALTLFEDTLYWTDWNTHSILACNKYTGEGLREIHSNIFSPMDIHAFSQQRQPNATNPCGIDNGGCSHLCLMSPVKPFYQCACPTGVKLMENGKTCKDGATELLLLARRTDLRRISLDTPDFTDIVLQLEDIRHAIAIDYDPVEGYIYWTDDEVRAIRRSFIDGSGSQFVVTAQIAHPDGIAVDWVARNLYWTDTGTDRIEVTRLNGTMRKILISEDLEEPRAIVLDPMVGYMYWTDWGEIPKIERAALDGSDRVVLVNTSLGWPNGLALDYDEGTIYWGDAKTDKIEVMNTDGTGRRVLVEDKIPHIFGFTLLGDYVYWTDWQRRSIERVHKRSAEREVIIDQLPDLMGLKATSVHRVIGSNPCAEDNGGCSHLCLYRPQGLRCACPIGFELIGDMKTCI
# T4: mouse LRP6-E3E4 (C-half, AA 629-1244) tagged with Fc (mouse IgG2a) (mouse, UniProt O88572 629-1244)
# T4 construct: not shown: mouse IgG2a Fc
# T4 sequence: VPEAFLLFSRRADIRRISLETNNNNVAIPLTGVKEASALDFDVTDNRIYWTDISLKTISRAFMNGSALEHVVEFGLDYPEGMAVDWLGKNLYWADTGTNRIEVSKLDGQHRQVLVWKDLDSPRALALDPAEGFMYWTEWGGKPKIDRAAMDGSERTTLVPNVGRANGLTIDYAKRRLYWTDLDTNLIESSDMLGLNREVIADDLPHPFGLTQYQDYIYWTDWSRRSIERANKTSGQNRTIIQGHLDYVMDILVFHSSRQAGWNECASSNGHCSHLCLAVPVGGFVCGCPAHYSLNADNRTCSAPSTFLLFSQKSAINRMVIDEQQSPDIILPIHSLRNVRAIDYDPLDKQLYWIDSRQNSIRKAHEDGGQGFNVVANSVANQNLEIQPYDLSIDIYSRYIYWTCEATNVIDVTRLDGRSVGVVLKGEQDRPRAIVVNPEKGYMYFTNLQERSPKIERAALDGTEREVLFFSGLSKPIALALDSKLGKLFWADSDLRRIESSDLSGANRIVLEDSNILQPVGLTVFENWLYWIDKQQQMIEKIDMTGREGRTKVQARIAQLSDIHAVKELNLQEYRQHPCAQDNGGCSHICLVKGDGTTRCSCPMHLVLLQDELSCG
# B1: AAV.CAP-B22 (other)
# chain: MAADGYLPDWLEDNLSEGIREWWALKPGAPQPKANQQHQDNARGLVLPGYKYLGPGNGLDKGEPVNAADAAALEHDKAYDQQLKAGDNPYLKYNHADAEFQERLKEDTSFGGNLGRAVFQAKKRLLEPLGLVEEAAKTAPGKKRPVEQSPQEPDSSAGIGKSGAQPAKKRLNFGQTGDTESVPDPQPIGEPPAAPSGVGSLTMASGGGAPVADNNEGADGVGSSSGNWHCDSQWLGDRVITTSTRTWALPTYNNHLYKQISNSTSGGSSNDNAYFGYSTPWGYFDFNRFHCHFSPRDWQRLINNNWGFRPKRLNFKLFNIQVKEVTDNNGVKTIANNLTSTVQVFTDSDYQLPYVLGSAHEGCLPPFPADVFMIPQYGYLTLNDGSQAVGRSSFYCLEYFPSQMLRTGNNFQFSYEFENVPFHSSYAHSQSLDRLMNPLIDQYLYYLSRTIDGQSSKSQTLKFSVAGPSNMAVQGRNYIPGPSYRQQRVSTTVTQNNNSEFAWPGASSWALNGRNSLMNPGPAMASHKEGEDRFFPLSGSLIFGKQGTGRDNVDADKVMITNEEEIKTTNPVATESYGQVATNHQSDGTLAVPFKAQAQTGWVQNQGILPGMVWQDRDVYLQGPIWAKIPHTDGNFHPSPLMGGFGMKHPPPQILIKNTPVPADPPTAFNKDKLNSFITQYSTGQVSVEIEWELQKENSKRWNPEIQYTSNYYKSNNVEFAVNTEGVYSEPRPIGTRYLTRNL
# notes: also called AAV9.CAP-B22
# B2: AAV-MaCPNS1 (other)
# chain: MAADGYLPDWLEDNLSEGIREWWALKPGAPQPKANQQHQDNARGLVLPGYKYLGPGNGLDKGEPVNAADAAALEHDKAYDQQLKAGDNPYLKYNHADAEFQERLKEDTSFGGNLGRAVFQAKKRLLEPLGLVEEAAKTAPGKKRPVEQSPQEPDSSAGIGKSGAQPAKKRLNFGQTGDTESVPDPQPIGEPPAAPSGVGSLTMASGGGAPVADNNEGADGVGSSSGNWHCDSQWLGDRVITTSTRTWALPTYNNHLYKQISNSTSGGSSNDNAYFGYSTPWGYFDFNRFHCHFSPRDWQRLINNNWGFRPKRLNFKLFNIQVKEVTDNNGVKTIANNLTSTVQVFTDSDYQLPYVLGSAHEGCLPPFPADVFMIPQYGYLTLNDGSQAVGRSSFYCLEYFPSQMLRTGNNFQFSYEFENVPFHSSYAHSQSLDRLMNPLIDQYLYYLSRTINGSGQNQQTLKFSVAGPSNMAVQGRNYIPGPSYRQQRVSTTVTQNNNSEFAWPGASSWALNGRNSLMNPGPAMASHKEGEDRFFPLSGSLIFGKQGTGRDNVDADKVMITNEEEIKTTNPVATESYGQVATNHQSAQPHEGSSRAQAQTGWVQNQGILPGMVWQDRDVYLQGPIWAKIPHTDGNFHPSPLMGGFGMKHPPPQILIKNTPVPADPPTAFNKDKLNSFITQYSTGQVSVEIEWELQKENSKRWNPEIQYTSNYYKSNNVEFAVNTEGVYSEPRPIGTRYLTRNL
# B3: AAV-BI30 (other)
# chain: B2 chain with P589N, H590N, E591S, G592T, S593R, S594G, R595G
# B4: AAV-MaCPNS2 (other)
# chain: B2 chain with H590N, E591A, G592S, S593V, S594N, R595S
# notes: also called AAV-MacCPNS2
# What was measured:
# [1] = biological target: T1, human interleukin 3 (IL3), expressed on …; assay: cell microarray screen hit (title of Table 4)
# [2] = biological target: T2, Mouse SCA1 (LY6A), on cells; assay: cell microarray screen hit (membrane)
# Experimental: After these controls, the six-capsid pool was tested in a full screen of approximately 6400 proteins, including 6000 human plasma membrane proteins and secreted and cell surface-tethered proteins, as well as approximately 400 heterodimers. […] To assign these hits to specific capsids, follow-up deconvolution screens were performed with each individual capsid from the pool (FIG. 12E). DNA oligos for the 22 identified hits, as well as the positive control CD86, were affixed in duplicate locations to new slides. A negative control condition with no AAV analyte and a positive control condition with CTLA4-Fc (CD86 binder) were also included.
# [3] = biological target: T2, Mouse SCA1 (LY6A), on cells; assay: cell microarray, individual capsids, anti-AAV9 detection
# Experimental: To enable higher-throughput screening, the six capsids were tested as a pool. Pooled testing required additional dosage optimizing, first for the individual and then for the collective background binding levels of the included capsids (Table 5).
# [4] = biological target: T3, mouse LRP6-E1E2 (N-half, AA 20-628) …; assay: SPR, target-Fc captured on protein A chip, AAV analyte (FIG. 20B)
# [5] = biological target: T4, mouse LRP6-E3E4 (C-half, AA 629-1244) …; assay: as above
binder,measurement,setting,value
B1,binding result,[1],binds
same,binding result,[2],binds
B2,binding result,[3],no binding
same,binding result,[1],binds
B3,binding result,[4],binds
same,binding result,[5],no binding
B4,binding result,[3],no binding
same,binding result,[1],binds
